Measured values as given in US20240343823A1 (Ablynx, published 2024).

Experiments:
[1] = target: T1, human GPC2 (R&D systems, cat no 2304-GP) (human, UniProt Q8N158 24-554, limits assumed); experiment: ELISA, GPC2 coated at 2 ug/mL
T1 construct: Bought
T1 sequence (looked up): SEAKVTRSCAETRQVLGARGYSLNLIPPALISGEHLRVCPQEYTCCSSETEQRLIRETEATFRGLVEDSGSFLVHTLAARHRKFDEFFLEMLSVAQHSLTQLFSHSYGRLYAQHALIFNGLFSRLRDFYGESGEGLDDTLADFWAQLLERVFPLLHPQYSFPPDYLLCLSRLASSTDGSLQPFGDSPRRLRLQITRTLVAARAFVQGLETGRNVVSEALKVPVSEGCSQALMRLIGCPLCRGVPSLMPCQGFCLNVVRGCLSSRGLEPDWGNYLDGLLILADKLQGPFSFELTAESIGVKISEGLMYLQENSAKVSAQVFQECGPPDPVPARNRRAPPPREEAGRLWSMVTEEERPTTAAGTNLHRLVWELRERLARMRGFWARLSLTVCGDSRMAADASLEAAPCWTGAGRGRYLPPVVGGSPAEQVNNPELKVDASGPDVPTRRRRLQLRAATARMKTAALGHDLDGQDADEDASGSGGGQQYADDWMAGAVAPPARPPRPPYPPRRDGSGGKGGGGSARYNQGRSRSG
Protocol: (§1) Human GPC1 (R&D systems, cat no 4519-GP), human GPC2 (R&D systems, cat no 2304-GP), human GPC3 (R&D systems, cat no 2119-GP), human Glypican-5 (R&D systems, cat no 2607-G5) and human Glypican-6 (R&D systems, cat no 2845-GP) were directly coated overnight at 4° C. (2 μg/mL, 1×PBS buffer) on a 384-well HB SpectraPlate (PerkinElmer). The following day the plate was washed 6 times (AquaMax microplate washer, Molecular devices) and blocked with 1×PBS+1% Casein for 2 hours at room temperature. […] After 6 final wash steps the es(HS)TMB substrate (SDT) was added and the reaction stopped by addition of 1 M HCl after 10 minutes. The absorbance of the plate was measured at wavelengths 450 and 620 nm on the Clariostar instrument (BMG LABTECH) and the OD₄₅₀-OD₆₂₀ calculated and plotted for data analysis.

[2] = target: T2, human Glypican-6 (R&D systems, cat no 2845-GP) (human, UniProt Q9Y625 24-529, limits assumed); experiment: ELISA, Glypican-6 coated at 2 ug/mL
T2 construct: Bought; also called GPC6
T2 sequence (looked up): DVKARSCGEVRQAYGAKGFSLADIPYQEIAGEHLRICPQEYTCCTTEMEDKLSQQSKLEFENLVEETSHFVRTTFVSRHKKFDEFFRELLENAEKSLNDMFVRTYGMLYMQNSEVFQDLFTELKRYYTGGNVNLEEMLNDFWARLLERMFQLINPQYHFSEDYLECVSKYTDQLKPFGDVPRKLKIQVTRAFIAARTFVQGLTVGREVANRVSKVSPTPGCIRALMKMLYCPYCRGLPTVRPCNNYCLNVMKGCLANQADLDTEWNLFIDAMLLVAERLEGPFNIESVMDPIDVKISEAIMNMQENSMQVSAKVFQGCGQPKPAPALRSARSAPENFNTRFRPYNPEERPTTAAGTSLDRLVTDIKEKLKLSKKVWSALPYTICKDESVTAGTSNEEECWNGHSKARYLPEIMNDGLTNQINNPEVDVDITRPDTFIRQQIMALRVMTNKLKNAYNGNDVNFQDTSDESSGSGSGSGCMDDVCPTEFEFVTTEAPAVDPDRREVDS
Protocol: as §1

[3] = target: T3, recombinant human Glypican-3 (R&D Systems, cat nr. 2119-GP) (human, UniProt P51654 25-559); experiment: SPR ProteOn XPR36, GPC3 captured on anti-His antibody, 1:1 model
T3 construct: Bought protein; also called human GPC3; hGPC3
Protocol: (§2) Recombinant GPC3 proteins were captured on a GLC Sensor Chip (Biorad) immobilized with THE anti-His antibody (Genscript, cat no ABIN387699) via amine coupling, using EDC and NHS chemistry (running buffer: HBS-EP+, pH7.4). Purified ISVDs were injected for 2 minutes (flow rate 45 μL/min) at different concentrations (between 0.3 nM and 1000 nM) and dissociation was followed for 900 s. Regeneration was performed by injecting 10 mM Glycine-HCl (pH 1.5) for 1 minute (flow rate 45 μL/min). Data was double referenced by subtracting a reference ligand lane and a blank buffer injection. Processed sensorgrams were analyzed based on the 1:1 interaction model (Langmuir binding model) using ProteOn Manager 3.1.0 (Version 3.1.0.6) software.

[4] = target: T4, cyno Glypican-3 delta-GPI-HIS, in-house produced (cynomolgus); experiment: as above
T4 construct: range 3-559; also called cyno GPC3; cyGPC3
Protocol: as §2

[5] = target: T5, TCRab on primary cyno T cells (cynomolgus); experiment: competition flow cytometry on cyno T cells, competitor T017000623 at EC30 (5E-08 M)
T5 construct: whole, on cells; also called Primary cy T cells; cyno TCR
Protocol: T cells (human T cells obtained as described in Example 3 and cyno T cells purchased from LPT laboratory, Germany) were thawed and counted on the day of the assay and diluted to a concentration of 1E+06 cells/mL, before adding 75 μL to the wells of a V-bottom 96-well plate (Greiner, cat no 651180). Cells were washed once with cold FACS buffer, before adding 25 μL Nb and 25 μL competitor to the wells. […] Cells were resuspended and plates were incubated at 4° C. for 90 minutes, after which plates were washed twice in cold FACS buffer. Cells were resuspended in 50 μl 1/1000 diluted Monoclonal ANTI-FLAG® M2 (Sigma Aldrich, cat no F1804) in FACS buffer and incubated at 4° C. for 30 minutes. Plates were washed twice in cold FACS buffer. […] Plates were washed twice in cold FACS buffer. Cells were resuspended in 55 μL 1/1000 diluted Propidium Iodide (Sigma-Aldrich, cat no P4170) in FACS buffer before acquiring data on the MACSQuant X (Miltenyi biotec).

B1: A022600424 (other)
chain: DVQLVESGGGVVQPGGSLRLSCVASGYVHKINFYGWYRQAPGKEREKVAHISIGDQTDYADSAKGRFTISRDESKNTVYLQMNSLRPEDTAAYYCRALSRIWPYDYWGQGTLVTVSSGGGGSEVQLVESGGGVVQPGGSLRLSCAASGFTFSSFAMTWVRRPPGKGLEWVATITNKGVTSYADSVKGRFTISRDNAKNTLYLQMNSLRPEDTALYICANARRTGPRAPTDIGSYRGQGTLVTVSSGGGGSGGGSEVQLVESGGGVVQPGGSLRLSCAASGSIFRSVFSSSTMEWYRQAPGKKRELVARIAPGEGTYYGALYADSVKGRFTISRDNAKNTVYLQMNSLRPEDTALYYCASGVAWGQGTLVTVSSGGGGSGGGSEVQLVESGGGVVQPGGSLRLSCAASGFTFRSFGMSWVRQAPGKGPEWVSSISGSGSDTLYADSVKGRFTISRDNSKNTLYLQMNSLRPEDTALYYCTIGGSLSRSSQGTLVTVSSA
notes: Trispecific tetravalent ISVD (VHH) T-cell engager: anti-TCR, two anti-GPC3 (biparatopic), anti-albumin; also called TCE01-5GS-A022600351-9GS-A022600314-9GS-ALB23002-A
binding result [1]: no binding
binding result [2]: no binding
Kd [3]: < 0.0056 nM
Kd [4]: < 0.0059 nM
IC50 [5]: 250 nM
